According to publication doi:10.1101/2020.10.07.330233v1:

Substrate: O=[N+]([O-])c1ccc(O[C@@H]2O[C@H](CO)[C@@H](O)[C@H](O)[C@H]2O)cc1
Assay: purified protein
Conditions: 1 hour assay
[1] = average of two wild-type replicates (WT-1, WT-2)

Protein | Km [1] [mM] | kcat [1] [s⁻¹] | Km (technical triplicate) [mM] | kcat (technical triplicate) [s⁻¹]
β-glucosidase B (BglB) (Paenibacillus polymyxa) (protein) MSENTFIFPATFMWGTSTSSYQIEGGTDEGGRTPSIWDTFCQIPGKVIGGDCGDVACDHFHHFKEDVQLMKQLGFLHYRFSVAWPRIMPAAGIINEEGLLFYEHLLDEIELAGLIPMLTLYHWDLPQWIEDEGGWTQRETIQHFKTYASVIMDRFGERINWWNTINEPYCASILGYGTGEHAPGHENWREAFTAAHHILMCHGIASNLHKEKGLTGKIGITLNMEHVDAASERPEDVAAAIRRDGFINRWFAEPLFNGKYPEDMVEWYGTYLNGLDFVQPGDMELIQQPGDFLGINYYTRSIIRSTNDASLLQVEQVHMEEPVTDMGWEIHPESFYKLLTRIEKDFSKGLPILITENGAAMRDELVNGQIEDTGRHGYIEEHLKACHRFIEEGGQLKGYFVWSFLDNFEWAWGYSKRFGIVHINYETQERTPKQSALWFKQMMAKNGF | 9.8 ± 2.2 | 10.37 ± 0.763 |  | 
β-glucosidase B (BglB) (Paenibacillus polymyxa; A360S) (protein) MSENTFIFPATFMWGTSTSSYQIEGGTDEGGRTPSIWDTFCQIPGKVIGGDCGDVACDHFHHFKEDVQLMKQLGFLHYRFSVAWPRIMPAAGIINEEGLLFYEHLLDEIELAGLIPMLTLYHWDLPQWIEDEGGWTQRETIQHFKTYASVIMDRFGERINWWNTINEPYCASILGYGTGEHAPGHENWREAFTAAHHILMCHGIASNLHKEKGLTGKIGITLNMEHVDAASERPEDVAAAIRRDGFINRWFAEPLFNGKYPEDMVEWYGTYLNGLDFVQPGDMELIQQPGDFLGINYYTRSIIRSTNDASLLQVEQVHMEEPVTDMGWEIHPESFYKLLTRIEKDFSKGLPILITENGASMRDELVNGQIEDTGRHGYIEEHLKACHRFIEEGGQLKGYFVWSFLDNFEWAWGYSKRFGIVHINYETQERTPKQSALWFKQMMAKNGF |  |  | 12.7 ± 1.4 | 1.55 ± 0.0533
β-glucosidase B (BglB) (Paenibacillus polymyxa; I23V) (protein) MSENTFIFPATFMWGTSTSSYQVEGGTDEGGRTPSIWDTFCQIPGKVIGGDCGDVACDHFHHFKEDVQLMKQLGFLHYRFSVAWPRIMPAAGIINEEGLLFYEHLLDEIELAGLIPMLTLYHWDLPQWIEDEGGWTQRETIQHFKTYASVIMDRFGERINWWNTINEPYCASILGYGTGEHAPGHENWREAFTAAHHILMCHGIASNLHKEKGLTGKIGITLNMEHVDAASERPEDVAAAIRRDGFINRWFAEPLFNGKYPEDMVEWYGTYLNGLDFVQPGDMELIQQPGDFLGINYYTRSIIRSTNDASLLQVEQVHMEEPVTDMGWEIHPESFYKLLTRIEKDFSKGLPILITENGAAMRDELVNGQIEDTGRHGYIEEHLKACHRFIEEGGQLKGYFVWSFLDNFEWAWGYSKRFGIVHINYETQERTPKQSALWFKQMMAKNGF |  |  | 12.7 ± 0.53 | 9.4 ± 0.125
β-glucosidase B (BglB) (Paenibacillus polymyxa; I48K) (protein) MSENTFIFPATFMWGTSTSSYQIEGGTDEGGRTPSIWDTFCQIPGKVKGGDCGDVACDHFHHFKEDVQLMKQLGFLHYRFSVAWPRIMPAAGIINEEGLLFYEHLLDEIELAGLIPMLTLYHWDLPQWIEDEGGWTQRETIQHFKTYASVIMDRFGERINWWNTINEPYCASILGYGTGEHAPGHENWREAFTAAHHILMCHGIASNLHKEKGLTGKIGITLNMEHVDAASERPEDVAAAIRRDGFINRWFAEPLFNGKYPEDMVEWYGTYLNGLDFVQPGDMELIQQPGDFLGINYYTRSIIRSTNDASLLQVEQVHMEEPVTDMGWEIHPESFYKLLTRIEKDFSKGLPILITENGAAMRDELVNGQIEDTGRHGYIEEHLKACHRFIEEGGQLKGYFVWSFLDNFEWAWGYSKRFGIVHINYETQERTPKQSALWFKQMMAKNGF |  |  | 4.2 ± 0.1 | 4.998 ± 0.04
β-glucosidase B (BglB) (Paenibacillus polymyxa; I23A) (protein) MSENTFIFPATFMWGTSTSSYQAEGGTDEGGRTPSIWDTFCQIPGKVIGGDCGDVACDHFHHFKEDVQLMKQLGFLHYRFSVAWPRIMPAAGIINEEGLLFYEHLLDEIELAGLIPMLTLYHWDLPQWIEDEGGWTQRETIQHFKTYASVIMDRFGERINWWNTINEPYCASILGYGTGEHAPGHENWREAFTAAHHILMCHGIASNLHKEKGLTGKIGITLNMEHVDAASERPEDVAAAIRRDGFINRWFAEPLFNGKYPEDMVEWYGTYLNGLDFVQPGDMELIQQPGDFLGINYYTRSIIRSTNDASLLQVEQVHMEEPVTDMGWEIHPESFYKLLTRIEKDFSKGLPILITENGAAMRDELVNGQIEDTGRHGYIEEHLKACHRFIEEGGQLKGYFVWSFLDNFEWAWGYSKRFGIVHINYETQERTPKQSALWFKQMMAKNGF |  |  | 17.1 ± 1.1 | 1.54 ± 0.035
